Data reported in US20230174608A1 (published 2023).

B1: dgc013 (peptide)
peptide: HXQGTFTSDYSKYLDERAAKEFIAWLEGG
HELM: PEPTIDE1{H.[Aib].Q.G.T.F.T.S.D.Y.S.K.Y.L.D.E.R.A.A.K.E.F.I.A.W.L.E.G.G.[am]}|PEPTIDE2{[CCCCCCCCCCCCCCCC(=O)[*:2]].[gGlu].[gGlu]}$PEPTIDE1,PEPTIDE2,20:R3-3:R2$$$V2.0; N-terminus assumed
SMILES: CCCCCCCCCCCCCCCC(=O)N[C@@H](CCC(=O)N[C@@H](CCC(=O)NCCCC[C@H](NC(=O)[C@H](C)NC(=O)[C@H](C)NC(=O)[C@H](CCCNC(=N)N)NC(=O)[C@H](CCC(=O)O)NC(=O)[C@H](CC(=O)O)NC(=O)[C@H](CC(C)C)NC(=O)[C@H](Cc1ccc(O)cc1)NC(=O)[C@H](CCCCN)NC(=O)[C@H](CO)NC(=O)[C@H](Cc1ccc(O)cc1)NC(=O)[C@H](CC(=O)O)NC(=O)[C@H](CO)NC(=O)[C@@H](NC(=O)[C@H](Cc1ccccc1)NC(=O)[C@@H](NC(=O)CNC(=O)[C@H](CCC(N)=O)NC(=O)C(C)(C)NC(=O)[C@@H](N)Cc1c[nH]cn1)[C@@H](C)O)[C@@H](C)O)C(=O)N[C@@H](CCC(=O)O)C(=O)N[C@@H](Cc1ccccc1)C(=O)N[C@H](C(=O)N[C@@H](C)C(=O)N[C@@H](Cc1c[nH]c2ccccc12)C(=O)N[C@@H](CC(C)C)C(=O)N[C@@H](CCC(=O)O)C(=O)NCC(=O)NCC(N)=O)[C@@H](C)CC)C(=O)O)C(=O)O
B2: dgc014 (peptide)
peptide: HXQGTFTSDYSKYLDERAAKEFIAWLEGG
HELM: PEPTIDE1{H.[Aib].Q.G.T.F.T.S.D.Y.S.K.Y.L.D.E.R.A.A.K.E.F.I.A.W.L.E.G.G.[am]}|PEPTIDE2{[CCCCCCCCCCCCCCCC(=O)[*:2]].[gGlu]}$PEPTIDE1,PEPTIDE2,20:R3-2:R2$$$V2.0; N-terminus assumed
SMILES: CCCCCCCCCCCCCCCC(=O)N[C@@H](CCC(=O)NCCCC[C@H](NC(=O)[C@H](C)NC(=O)[C@H](C)NC(=O)[C@H](CCCNC(=N)N)NC(=O)[C@H](CCC(=O)O)NC(=O)[C@H](CC(=O)O)NC(=O)[C@H](CC(C)C)NC(=O)[C@H](Cc1ccc(O)cc1)NC(=O)[C@H](CCCCN)NC(=O)[C@H](CO)NC(=O)[C@H](Cc1ccc(O)cc1)NC(=O)[C@H](CC(=O)O)NC(=O)[C@H](CO)NC(=O)[C@@H](NC(=O)[C@H](Cc1ccccc1)NC(=O)[C@@H](NC(=O)CNC(=O)[C@H](CCC(N)=O)NC(=O)C(C)(C)NC(=O)[C@@H](N)Cc1c[nH]cn1)[C@@H](C)O)[C@@H](C)O)C(=O)N[C@@H](CCC(=O)O)C(=O)N[C@@H](Cc1ccccc1)C(=O)N[C@H](C(=O)N[C@@H](C)C(=O)N[C@@H](Cc1c[nH]c2ccccc12)C(=O)N[C@@H](CC(C)C)C(=O)N[C@@H](CCC(=O)O)C(=O)NCC(=O)NCC(N)=O)[C@@H](C)CC)C(=O)O
B3: dgc015 (peptide)
peptide: HXQGTFTSDYSKYLEERAAKEFIAWLEGG
HELM: PEPTIDE1{H.[Aib].Q.G.T.F.T.S.D.Y.S.K.Y.L.E.E.R.A.A.K.E.F.I.A.W.L.E.G.G.[am]}|PEPTIDE2{[CCCCCCCCCCCCCCCC(=O)[*:2]].[gGlu]}$PEPTIDE1,PEPTIDE2,20:R3-2:R2$$$V2.0; N-terminus assumed
SMILES: CCCCCCCCCCCCCCCC(=O)N[C@@H](CCC(=O)NCCCC[C@H](NC(=O)[C@H](C)NC(=O)[C@H](C)NC(=O)[C@H](CCCNC(=N)N)NC(=O)[C@H](CCC(=O)O)NC(=O)[C@H](CCC(=O)O)NC(=O)[C@H](CC(C)C)NC(=O)[C@H](Cc1ccc(O)cc1)NC(=O)[C@H](CCCCN)NC(=O)[C@H](CO)NC(=O)[C@H](Cc1ccc(O)cc1)NC(=O)[C@H](CC(=O)O)NC(=O)[C@H](CO)NC(=O)[C@@H](NC(=O)[C@H](Cc1ccccc1)NC(=O)[C@@H](NC(=O)CNC(=O)[C@H](CCC(N)=O)NC(=O)C(C)(C)NC(=O)[C@@H](N)Cc1c[nH]cn1)[C@@H](C)O)[C@@H](C)O)C(=O)N[C@@H](CCC(=O)O)C(=O)N[C@@H](Cc1ccccc1)C(=O)N[C@H](C(=O)N[C@@H](C)C(=O)N[C@@H](Cc1c[nH]c2ccccc12)C(=O)N[C@@H](CC(C)C)C(=O)N[C@@H](CCC(=O)O)C(=O)NCC(=O)NCC(N)=O)[C@@H](C)CC)C(=O)O
B4: dgc016 (peptide)
peptide: HXQGTFTSDYSKYLEERAAKEFIAWLEGG
HELM: PEPTIDE1{H.[Aib].Q.G.T.F.T.S.D.Y.S.K.Y.L.E.E.R.A.A.K.E.F.I.A.W.L.E.G.G.[am]}|PEPTIDE2{[CCCCCCCCCCCCCCCC(=O)[*:2]].[gGlu].[gGlu]}$PEPTIDE1,PEPTIDE2,20:R3-3:R2$$$V2.0; N-terminus assumed
SMILES: CCCCCCCCCCCCCCCC(=O)N[C@@H](CCC(=O)N[C@@H](CCC(=O)NCCCC[C@H](NC(=O)[C@H](C)NC(=O)[C@H](C)NC(=O)[C@H](CCCNC(=N)N)NC(=O)[C@H](CCC(=O)O)NC(=O)[C@H](CCC(=O)O)NC(=O)[C@H](CC(C)C)NC(=O)[C@H](Cc1ccc(O)cc1)NC(=O)[C@H](CCCCN)NC(=O)[C@H](CO)NC(=O)[C@H](Cc1ccc(O)cc1)NC(=O)[C@H](CC(=O)O)NC(=O)[C@H](CO)NC(=O)[C@@H](NC(=O)[C@H](Cc1ccccc1)NC(=O)[C@@H](NC(=O)CNC(=O)[C@H](CCC(N)=O)NC(=O)C(C)(C)NC(=O)[C@@H](N)Cc1c[nH]cn1)[C@@H](C)O)[C@@H](C)O)C(=O)N[C@@H](CCC(=O)O)C(=O)N[C@@H](Cc1ccccc1)C(=O)N[C@H](C(=O)N[C@@H](C)C(=O)N[C@@H](Cc1c[nH]c2ccccc12)C(=O)N[C@@H](CC(C)C)C(=O)N[C@@H](CCC(=O)O)C(=O)NCC(=O)NCC(N)=O)[C@@H](C)CC)C(=O)O)C(=O)O
B5: dgc017 (peptide)
peptide: HXQGTFTSDYSKYLDEKAAKEFIAWLEGG
HELM: PEPTIDE1{H.[Aib].Q.G.T.F.T.S.D.Y.S.K.Y.L.D.E.K.A.A.K.E.F.I.A.W.L.E.G.G.[am]}|PEPTIDE2{[CCCCCCCCCCCCCCCC(=O)[*:2]].[gGlu]}$PEPTIDE1,PEPTIDE2,20:R3-2:R2$$$V2.0; N-terminus assumed
SMILES: CCCCCCCCCCCCCCCC(=O)N[C@@H](CCC(=O)NCCCC[C@H](NC(=O)[C@H](C)NC(=O)[C@H](C)NC(=O)[C@H](CCCCN)NC(=O)[C@H](CCC(=O)O)NC(=O)[C@H](CC(=O)O)NC(=O)[C@H](CC(C)C)NC(=O)[C@H](Cc1ccc(O)cc1)NC(=O)[C@H](CCCCN)NC(=O)[C@H](CO)NC(=O)[C@H](Cc1ccc(O)cc1)NC(=O)[C@H](CC(=O)O)NC(=O)[C@H](CO)NC(=O)[C@@H](NC(=O)[C@H](Cc1ccccc1)NC(=O)[C@@H](NC(=O)CNC(=O)[C@H](CCC(N)=O)NC(=O)C(C)(C)NC(=O)[C@@H](N)Cc1c[nH]cn1)[C@@H](C)O)[C@@H](C)O)C(=O)N[C@@H](CCC(=O)O)C(=O)N[C@@H](Cc1ccccc1)C(=O)N[C@H](C(=O)N[C@@H](C)C(=O)N[C@@H](Cc1c[nH]c2ccccc12)C(=O)N[C@@H](CC(C)C)C(=O)N[C@@H](CCC(=O)O)C(=O)NCC(=O)NCC(N)=O)[C@@H](C)CC)C(=O)O

These binders were tested against Glucagon receptor (GCGR), stably expressed on HEK293 cells (assay: cell-based or functional assay).

Binder | GCGR (nM EC50), receptor-mediated cAMP production in HEK293 cells
B1 | 1.99 nM
B2 | 0.821 nM
B3 | 1.53 nM
B4 | 0.342 nM
B5 | 3.95 nM

Each binder was assayed against GLP-1 receptor (GLP-1R), stably expressed on HEK293 cells (assay: cell-based or functional assay).

Binder | GLP-1R (nM EC50), receptor-mediated cAMP production in HEK293 cells
B1 | 0.319 nM
B2 | 0.516 nM
B3 | 0.899 nM
B4 | 1.23 nM
B5 | 0.627 nM
